From the supplement of paper PMC10567573

B1: SNX3 (parent)
chain: FLRQLPFRGDDGIFDDNFIEERKQ

Variants of: B1
Assay: protein stability index of a GFP-peptide fusion (GPS, HEK-293T) (PSI 1-6); higher = more stable
Settings: c terminus: a fixed tail appended
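Further: lentivirally expressed fusions sorted by FACS into six bins by GFP to DsRed ratio, PSI derived from sequencing read proportions per bin multiplied by bin number.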

Protein stability index of substitutions, site by site:
R3: Y 2.28
Q4: A 3.78; C 2.83; D 4.26; E 3.85; F 2.44; G 4.33; H 2.94; I 2.55; K 2.67; L 1.91; M 3.22; N 2.13; P 1.95; R 2.27; S 2.95; T 3.08; V 3.07; W 2.7; Y 1.48
L5: A 3.1; D 3.71; E 4.62; F 3.36; G 3.74; H 3.22; I 2.18; K 4.01; M 3.39; N 3.78; P 3.78; Q 3.72; R 3.99; S 4.01; T 3.77; V 4.15; W 1.96; Y 2.78
P6: A 2.22; C 2.49; D 3.31; E 2.91; F 2.14; G 3.45; H 3.1; I 2.26; K 2.88; M 1.74; N 3.02; Q 3.32; R 3.1; S 3.26; T 2.92; V 2.29; W 2.15; Y 2.9
F7: C 3.16; D 4.03; E 4.77; G 3.5; H 3.52; I 2.83; K 4; L 3.23; M 3.32; N 3.87; P 2.62; Q 3.59; R 3.58; S 3.76; T 4.35; V 3.83; W 3.05; Y 3.07
R8: A 3.15; C 2.33; D 2.9; E 3.94; F 2.44; G 3.79; H 3.96; I 2.67; K 3.69; L 2.95; M 3.1; N 3.68; P 3.75; Q 4.22; S 3.61; T 3.97; V 3.56; W 3.08; Y 3.96
G9: A 3.68; C 2.79; D 3.04; E 3.17; F 3.36; H 3.08; I 2.9; K 3.39; L 2.99; N 2.72; P 3.06; Q 2.98; R 3.27; S 3.41; T 2.97; V 3.08; W 3.02; Y 2.53
D10: A 3.12; C 3.52; E 3.33; F 2.62; G 2.76; H 3.65; I 2.03; K 3.41; L 2.42; M 3.41; N 2.64; P 3.42; Q 3.56; R 3.27; S 3.35; T 3.2; V 3.72; W 2.35; Y 1.9
D11: A 4.01; C 2.91; E 2.9; F 2.74; G 4.22; H 3.15; I 2.53; K 3; L 2.71; M 3.05; N 3.01; P 4.1; Q 3.16; R 2.46; S 4.12; T 3.37; V 4.03; W 1.94; Y 2.32
G12: A 3.79; C 3.03; D 3.67; E 3.64; F 3.03; H 3.77; I 2.39; K 4.03; L 3.01; M 3.79; N 3.23; P 2.74; Q 3.84; R 3.1; S 3.21; T 3.66; V 3.07; W 2.67; Y 2.91
I13: A 4.22; D 4.24; E 4; F 3.03; G 3.52; H 3.67; K 4.7; L 3.26; M 3.03; N 3.28; P 4.03; Q 4.03; S 3.8; T 3.48; V 3.3; W 2.72; Y 3.83
F14: A 4.26; C 3.06; D 4.79; E 4.56; G 4.33; H 4.32; I 3.76; K 4.23; L 3.56; M 3.67; Q 3.67; R 3.88; S 3.87; T 3.86; V 3.81; W 3.38; Y 2.84
D15: A 3.45; C 2.99; E 3.18; F 2.74; G 3.12; H 3.06; I 2.53; K 2.96; L 3.28; M 3.28; N 2.75; P 3.04; Q 2.97; R 2.71; S 3.15; T 3.94; V 2.65; W 2.89; Y 2.43
D16: A 2.62; C 3.05; F 2.56; G 3.18; H 3.6; I 3.19; K 3.86; L 2.91; M 2.95; N 2.88; P 3.4; Q 3; R 3.23; S 3.53; T 3.06; V 3.45; W 2.73; Y 2.8
N17: A 2.54; C 3.27; D 3.83; E 4.18; F 2.58; G 4.12; H 3.41; I 2.7; K 3.98; L 2.28; M 2.79; P 3.23; Q 3.71; R 2.61; T 3.22; V 2.97; W 1.94; Y 2.38
F18: A 4.56; C 4.21; D 4.12; E 4.47; H 3.19; I 3.08; K 3.44; L 3.75; M 3.79; N 4.16; P 3.62; Q 3.94; R 3.9; S 4.3; T 3.96; V 3.67; W 3.2; Y 3.27
I19: A 4.03; C 3.29; D 3.98; F 3.79; G 3.87; H 2.92; K 3.62; L 3; M 3.75; N 3.94; P 4.04; Q 4.12; S 3.67; T 3.86; V 3.73; W 3.6; Y 3.15
E20: A 3.57; C 3.23; D 3.35; F 2.88; G 3.17; H 2.29; I 1.67; K 3.74; L 2.56; M 2.79; N 2.92; P 2.44; Q 2.74; R 3.24; S 2.93; T 2.24; V 2.49; W 2.17; Y 2.84
E21: A 3.12; C 2.85; D 4.12; F 2.39; G 2.49; H 2.64; I 2.96; K 3.33; L 3.34; M 2.81; N 3.01; P 2.62; Q 2.84; R 3.19; S 2.83; T 3.13; V 2.02; W 2.1; Y 2
R22: A 3.56; C 2.85; D 3.44; E 3.73
